[ ]: non-standard residue; d: D form. Aib = CC(C)(N)C(=O)O

Data on 3 molecules can be found in patent publication US20170157198A1 (BAXALTA, published 2017).

Assay [1] has as its target T1, TFPI (human TFPI-1α), as coated or added in the ELISA and model assays (human, UniProt P10646 29-304, limits assumed). Kind of assay: cell-based or functional assay.
The target in assay [2] is T1, TFPI (human TFPI-1α), as coated or …. In words: ELISA affinity (column head says EC50). (In general: ELISA stands for enzyme-linked immunosorbent assay.)
The next assay has as its target T2, murine TFPI (murine, UniProt O54819 29-289, limits assumed).
T2 construct: also called murine TFPI-1
T2 sequence (looked up): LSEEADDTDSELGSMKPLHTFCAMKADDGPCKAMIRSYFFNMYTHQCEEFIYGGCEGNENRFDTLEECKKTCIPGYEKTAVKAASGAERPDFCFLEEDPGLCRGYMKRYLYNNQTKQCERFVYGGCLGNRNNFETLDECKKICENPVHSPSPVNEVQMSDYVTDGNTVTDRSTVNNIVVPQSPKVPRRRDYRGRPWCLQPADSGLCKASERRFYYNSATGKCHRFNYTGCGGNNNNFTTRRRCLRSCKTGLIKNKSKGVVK
Kind of assay: not specified.

B1: JBT2430 (peptide)
peptide: FQSKPNVHVDGYFERLXAKLK
modifications: not fully specified; K(AOA) coupled to PSA (polysialic acid) aldehyde; D-proline at 5; Aib at 17
Regarding B1, in assay [1], the “FXa Inhibition EC50” value is 9 nM.

B2: JBT2404 (peptide)
peptide: Ac-FQSK[dP]NVHVDGYFC(linear PEG 40 kDa)RL[Aib]AKL-NH2
As for B2, the “FXa Inhibition EC50” value in assay [1] was determined as 13.4 nM. Moreover, the concentration giving a half-maximal response (EC50) (in general, the concentration that produces a half-maximal response) in assay [2] turned out to be 18.2 nM.

B3: JBT2329 (peptide)
peptide: FQSKPNVHVDGYFERLXAKLC
modifications: N-terminal acetyl (Ac); D-proline at 5; Aib at 17; C-terminal C(PEG), linear PEG 41.5 kD; C-terminal amide (NH2)
Consider B3, for which the binding result with murine TFPI is given as “binds”.
